System: K4 kissing-loop RNA reporter
Experiment: apparent KD of K4 kissing-loop reporter; higher = weaker reporter binding
Conditions: Eterna round: R107
Protocol: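 RNA-MaP round R107: designed RNA switches with theophylline, tryptophan, arginine or FMN aptamers are transcribed on-chip within common flanks. They are titrated with a labelled K4 kissing-loop RNA reporter in RNA-MaP buffer (100 mM Tris pH 7.5, 80 mM KCl, 4 mM MgCl2), without ligand or with the indicated ligand. Median apparent KD per design.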

[1] = input ligand: theophylline 20 uM
[2] = input ligand: tryptophan 2.4 mM
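Further: bound reporter read as fluorescence of individual clusters on recovered sequencing chips by microscopy, with normalized cluster intensities fitted with a binding model.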

Row | Sequence | apparent KD of K4 kissing-loop reporter (input ligand: FMN 200 uM) [nM] | apparent KD of K4 kissing-loop reporter (input ligand: arginine 13.2 mM) [nM] | apparent KD of K4 kissing-loop reporter (input ligand: none) [nM] | apparent KD of K4 kissing-loop reporter [1] [nM] | apparent KD of K4 kissing-loop reporter [2] [nM]
1 | UAUUUAUUAACUGAUACCAGACUUAAUGAAUUGUAAAUUACUAGUGAUGUUAGUGAAUCUGUCCCUUGGCAGCAGUAUUUAUUAA [JR_Nu_ExcTheophyB_Sub028] | 111 | 169 | 128 | 170 | 85.1
2 | UCAUCGGUACAAGGAUAUUAGAGGUAGUGAUGUUACCCGUUUUUUAUACAUCGAUGUCACCCUAACUAAGAAGGUGUUCAAACUU [theeternabot_exclusion_KL_FMN_B_7] | 62.5 | 52.7 | 50.2 | 54 | 38.4
3 | UCCACGCUUAGAGGAUAUCGGAUUAGAGUGAUGUUCUAAAGAAGCCCAGUGAUGUUGGAUGGUAUACGAGAAGGCUGAGGCGUGG [Same State FMN B GF 3] | 229 | 629 | 725 | 588 | 492
4 | UCCUGCAAUCGGCCACGAAAGUGGAUGGAUACCAGAGUCGAAAGACUCCCUUGGCAGCCAGUGAUGUUGGAAGCAGGUAAAUAAA | 838 | 499 | 470 | 538 | 505
5 | UCCUGCAAUCGUCCACGAAAGUGGAUUGAUACCAGAGUCGAAAGACUCCCUUGGCAGCGAGUGAUGUUCGAAGCAGGUAAAUAAA | 432 | 365 | 417 | 363 | 337
6 | UCCUGCAAUCUACCACGAAAGUGGAUGGAUACCAGAGUCGAAAGACUCCCUUGGCAGCCAGUGAUGUUGGAGCAGGUAAAAUAAA | 670 | 462 | 638 | 514 | 529
7 | UCGGACCCUGGAGGAUAUGAGUCGAGUGAUGUUUGGCGGUCCAUGCCGGUGCGGCGUUAUGCCCUUUUAGAAGGCCAGGGUCCGA [#2 Exclusion - FMN B Attempt #13 (HarryS)] | 287 | 182 | 307 | 351 | 289
8 | UCUGCAAAGUCGGCCGCCACUCCGGGCCCUAUAAAUGGGCGCAGUGAUGUUGCGGCUAGGCCUCUGAGGACCGGGACUUUAUAGA [Anarisgema] | 37.4 | 45.8 | 184 | 88.3 | 175
9 | UCUGGAGUAUAUGAUACCAGCAGUGAGAGACAGGAAGUAUAGUGAUGUUAUAUGAGAGAAUGCCCUUGGCAGCGUGUGCGGUGGG [SSTheophylB.R] | 94.3 | 85 | 71.1 | 106 | 62.7
10 | UCUUGUUCAUAGUGAUGUUAUGAGCUUAGAAAGGAUAUGAUCAACAUCAGAAGGUUCAAGGAUUCCCGACUCCAACUUCGGUUUC [theeternabot_sameState_KL_FMN_A_43] | 280 | 270 | 306 | 339 | 332
11 | UGACGUUUGGGAAGGAGCGGAAUGUAAUACGGAGCGCGUGGAGAUGCAGUGAUGUUGCAGAUCCAGGUAGGUCGCCCAAGGGACG [Zati] | 95.3 | 83.5 | 80.9 | 79.3 | 79.6
12 | UGACUGGAUGGAAGGAGCGCUAAACUCCUAGUGAUGUUAGGGACACGAGACAAAGUCUCGAGGCAGGUAGGUCGCCAUCUAGUCU [FiskerMod 7 - Jieux - Same State - Arginine B] | 225 | 198 | 197 | 250 | 212
13 | UGACUGGAUGGAAGGAGCGCUAAACUCCUAGUGAUGUUAGGGAUAUGAGGCAAAGCCUCGAAGCAGGUAGGUCGCCAUCUAGUCU [FiskerMod 20 - Jieux - Same State - Arginine B] | 159 | 114 | 148 | 160 | 156
14 | UGAUACCAGACGGCCGCCACUCCUGCAAGUCAAAGACUUGCUAAGGAAAUCGUCCAGUGAUGUUGGAGGACCGGGUCUGGUAUCU [TrypBX 17 #SwitchBubble #Palindromic #StaticStem] | 931 | 670 | 830 | 717 | 899
15 | UGAUAGGACAGAAGGAGCGGAAGUGAUGUUUCCAAAAGGGAAGGUCGACAAAGUCGACCCUUCCAGGUAGGUCGCUGUCCUAUCU [ArgBX 9 #Palindromic #SwitchBubble #StaticStem] | 75.9 | 72.5 | 73.9 | 86.1 | 68.7
16 | UGAUAGGACAGAAGGAGCGGCAGUGAUGUUGCCAAAAGGUUAAGGUGUCAAAAGACACCCUGCCAGGUAGGUCGCUGUCCUAUCU | 202 | 236 | 212 | 214 | 208
17 | UGAUAGGACAGAAGGAGCGGUAGUGAUGUUACCAAAAGGAUAAGGUGUCAAAAGACACCCUGCCAGGUAGGUCGCUGUCCUAUCU | 102 | 100 | 107 | 98.8 | 87
18 | UGAUUGCCAGUGAUGUUGGCAGUGACUGAAGGAGCGCGUGAAAACGCAGGUAGGUCGCAGUUGAGUGCCAAUUGAUCGAAAGAUC [KL-XArg-A5] | 286 | 275 | 244 | 328 | 249
